In paper PMC5268773:
Read-outs that look alike come from different tables or passages of the source.

How the values were obtained:
[1] = target: plasminogen (Homo sapiens) (UniProt P00747); details: cited from earlier work
[2] = target: plasmin (Homo sapiens) (UniProt P00747); experiment: SPR; details: cited from earlier work
[3] = target: plasmin (Homo sapiens) (UniProt P00747); details: cited from earlier work
[4] = target: fibrin (purified fibrin clots) (UniProt P02671)
Sequence of UniProt P02671 (P02671 36-866, chain 1 of 3): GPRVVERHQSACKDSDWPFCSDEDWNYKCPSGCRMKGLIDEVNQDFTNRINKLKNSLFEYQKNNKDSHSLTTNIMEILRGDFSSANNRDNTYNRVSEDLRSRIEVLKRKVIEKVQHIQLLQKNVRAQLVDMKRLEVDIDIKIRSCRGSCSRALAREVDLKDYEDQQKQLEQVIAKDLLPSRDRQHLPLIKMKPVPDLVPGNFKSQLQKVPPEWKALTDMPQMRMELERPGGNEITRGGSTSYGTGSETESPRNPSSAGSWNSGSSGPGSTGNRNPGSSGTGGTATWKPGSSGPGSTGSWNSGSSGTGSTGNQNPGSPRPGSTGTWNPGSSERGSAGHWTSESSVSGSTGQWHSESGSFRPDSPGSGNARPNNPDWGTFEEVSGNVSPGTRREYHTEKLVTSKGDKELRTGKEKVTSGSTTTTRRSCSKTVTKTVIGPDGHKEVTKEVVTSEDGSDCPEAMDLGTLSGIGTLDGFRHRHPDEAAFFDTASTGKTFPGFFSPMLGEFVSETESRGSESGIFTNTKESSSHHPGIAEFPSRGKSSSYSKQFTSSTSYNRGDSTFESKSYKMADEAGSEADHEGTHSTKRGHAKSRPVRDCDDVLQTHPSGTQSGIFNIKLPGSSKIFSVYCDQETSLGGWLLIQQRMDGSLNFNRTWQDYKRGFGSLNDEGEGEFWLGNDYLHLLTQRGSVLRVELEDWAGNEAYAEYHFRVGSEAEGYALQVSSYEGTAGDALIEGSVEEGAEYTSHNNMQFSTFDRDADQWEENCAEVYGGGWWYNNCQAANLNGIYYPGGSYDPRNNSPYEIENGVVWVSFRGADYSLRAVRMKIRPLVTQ
Sequence of UniProt P02671 (P02675 45-491, chain 2 of 3, further chain): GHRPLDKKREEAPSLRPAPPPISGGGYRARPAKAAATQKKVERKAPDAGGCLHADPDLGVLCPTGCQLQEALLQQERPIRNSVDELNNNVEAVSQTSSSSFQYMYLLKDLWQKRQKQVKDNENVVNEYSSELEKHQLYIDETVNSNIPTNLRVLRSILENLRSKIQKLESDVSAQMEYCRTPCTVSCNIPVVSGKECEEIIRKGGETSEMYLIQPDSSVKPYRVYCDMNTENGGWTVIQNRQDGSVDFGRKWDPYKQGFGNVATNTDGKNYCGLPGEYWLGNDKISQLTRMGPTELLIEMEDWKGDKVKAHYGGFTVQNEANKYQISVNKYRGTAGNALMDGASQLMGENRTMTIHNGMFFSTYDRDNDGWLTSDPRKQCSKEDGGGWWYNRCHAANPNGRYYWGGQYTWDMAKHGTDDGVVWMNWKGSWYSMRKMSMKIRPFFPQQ
Sequence of UniProt P02671 (P02679 27-453, chain 3 of 3, further chain): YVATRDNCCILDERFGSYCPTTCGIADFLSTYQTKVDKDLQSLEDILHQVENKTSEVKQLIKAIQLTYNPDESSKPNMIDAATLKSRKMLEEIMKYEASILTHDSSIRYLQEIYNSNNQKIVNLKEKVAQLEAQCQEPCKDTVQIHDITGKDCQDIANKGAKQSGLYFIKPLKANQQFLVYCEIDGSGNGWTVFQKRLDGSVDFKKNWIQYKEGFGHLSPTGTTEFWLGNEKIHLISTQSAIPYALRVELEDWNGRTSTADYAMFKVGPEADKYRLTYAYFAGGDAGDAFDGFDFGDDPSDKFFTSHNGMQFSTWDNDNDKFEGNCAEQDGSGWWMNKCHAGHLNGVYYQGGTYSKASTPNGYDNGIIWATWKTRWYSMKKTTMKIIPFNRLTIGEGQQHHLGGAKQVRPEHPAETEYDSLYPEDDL

Sequence of streptokinase (P10520 27-440): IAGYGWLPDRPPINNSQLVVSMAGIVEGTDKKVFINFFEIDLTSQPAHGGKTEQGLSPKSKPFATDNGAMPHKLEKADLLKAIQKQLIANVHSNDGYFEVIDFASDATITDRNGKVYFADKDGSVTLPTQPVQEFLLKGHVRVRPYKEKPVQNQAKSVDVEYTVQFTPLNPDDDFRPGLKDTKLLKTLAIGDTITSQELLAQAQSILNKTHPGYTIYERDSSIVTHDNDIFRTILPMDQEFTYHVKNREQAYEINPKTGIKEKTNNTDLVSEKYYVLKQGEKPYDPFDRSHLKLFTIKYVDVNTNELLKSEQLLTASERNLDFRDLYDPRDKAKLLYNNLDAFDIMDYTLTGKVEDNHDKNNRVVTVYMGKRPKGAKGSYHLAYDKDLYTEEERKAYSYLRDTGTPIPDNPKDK

Row | Substance | Kd [1] | Kd [2] | Kd [3] | IC50 of tranexamic acid (TA) for inhibition of Pgn activation by rSK-M1GAS in fibrin [4]
1 | streptokinase (from UniProt P10520) | 6 nM | 0.5 nM | 0.3 nM | –
2 | recombinant streptokinase from the M1 type group A streptococcus, Streptococcus pyogenes strain SF370 (rSK-M1GAS) (natural protein) | – | – | – | 133000 nM
